T1: human MSLN-R1-his protein (human, UniProt Q13421 296-390)
T1 construct: Made in HEK293E cells, purified on nickel column; also called hMSLN-R1-his; human MSLN-R1 protein; not shown: His tag
T1 chain: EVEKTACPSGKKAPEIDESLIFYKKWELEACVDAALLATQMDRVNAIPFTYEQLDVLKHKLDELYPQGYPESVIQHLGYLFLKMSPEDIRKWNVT

T2: monkey MSLN on HEK293T-monkey MSLN recombinant cells (monkey)
T2 construct: Full-length precursor as transfected; processing on the cell is not described; also called HEK293-monkey MSLN
T2 chain: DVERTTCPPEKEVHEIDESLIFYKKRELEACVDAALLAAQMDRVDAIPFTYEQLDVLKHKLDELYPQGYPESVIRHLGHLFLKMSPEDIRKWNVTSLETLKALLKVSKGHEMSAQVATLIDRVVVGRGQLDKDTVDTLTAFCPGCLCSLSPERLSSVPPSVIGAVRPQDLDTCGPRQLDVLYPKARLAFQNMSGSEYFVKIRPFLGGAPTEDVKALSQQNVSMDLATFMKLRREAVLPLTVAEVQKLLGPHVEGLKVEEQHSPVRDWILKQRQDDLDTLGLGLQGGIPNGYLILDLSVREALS


Legend:
[1] = molecular target: T1, human MSLN-R1-his protein; assay: ELISA, coated antigen, antibody 2 nM
[2] = molecular target: T3, human MSLN-FL-his protein (human, UniProt Q13421 296-580); assay: ELISA, coated antigen, antibody 200 nM
T3 construct: Made in HEK293E cells, purified on nickel column; also called hMSLN-FL-his; human MSLN full-length protein; not shown: His tag
Target sequence in this assay (Q13421 other isoform, or with tags, fused parts or gaps): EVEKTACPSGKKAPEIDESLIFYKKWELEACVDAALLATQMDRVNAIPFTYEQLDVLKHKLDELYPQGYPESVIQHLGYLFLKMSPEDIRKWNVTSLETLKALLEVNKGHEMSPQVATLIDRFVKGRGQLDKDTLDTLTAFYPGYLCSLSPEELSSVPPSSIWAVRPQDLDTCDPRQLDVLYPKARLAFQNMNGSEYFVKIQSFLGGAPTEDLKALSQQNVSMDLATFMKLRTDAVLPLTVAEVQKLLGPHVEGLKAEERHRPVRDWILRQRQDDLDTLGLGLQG

[3] = molecular target: T1, human MSLN-R1-his protein; assay: ELISA, coated antigen, antibody 0.0002 nM
[4] = molecular target: T3, human MSLN-FL-his protein; assay: ELISA, coated antigen, antibody 0.002 nM
[5] = molecular target: T3, human MSLN-FL-his protein; assay: ELISA, coated antigen, antibody 0.2 nM
[6] = molecular target: T3, human MSLN-FL-his protein; assay: ELISA, coated antigen, antibody 20 nM
[7] = molecular target: T3, human MSLN-FL-his protein; assay: ELISA, coated antigen, no antibody (blank)
[8] = molecular target: T1, human MSLN-R1-his protein; assay: ELISA, coated antigen, antibody 20 nM
[9] = molecular target: T1, human MSLN-R1-his protein; assay: ELISA, coated antigen, antibody 0.02 nM
[10] = molecular target: T1, human MSLN-R1-his protein; assay: ELISA, coated antigen, no antibody (blank)
[11] = molecular target: T3, human MSLN-FL-his protein; assay: ELISA, coated antigen, antibody 0.02 nM
[12] = molecular target: T3, human MSLN-FL-his protein; assay: ELISA, coated antigen, antibody 0.0002 nM
[13] = molecular target: T3, human MSLN-FL-his protein; assay: ELISA, coated antigen, antibody 2 nM
[14] = molecular target: T1, human MSLN-R1-his protein; assay: ELISA, coated antigen, antibody 200 nM
[15] = molecular target: T1, human MSLN-R1-his protein; assay: ELISA, coated antigen, antibody 0.002 nM
[16] = molecular target: T1, human MSLN-R1-his protein; assay: ELISA, coated antigen, antibody 0.2 nM
[17] = molecular target: T2, monkey MSLN on HEK293T-monkey MSLN …; assay: FACS, HEK293T-monkey MSLN cells
[18] = molecular target: T4, human MSLN-R3 on HEK293T-hMSLN-R3 recombinant cells (human, UniProt Q13421 487-606); assay: FACS, HEK293T-hMSLN-R3 cells
T4 construct: the C-terminal limit is uncertain; also called human MSLN-R3 membrane protein
T4 sequence (Q13421 495-614): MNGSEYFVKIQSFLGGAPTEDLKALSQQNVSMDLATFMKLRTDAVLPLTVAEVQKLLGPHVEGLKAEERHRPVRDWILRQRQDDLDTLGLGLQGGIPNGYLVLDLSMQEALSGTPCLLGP

[19] = molecular target: T5, human MSLN-hFc recombinant protein (human, UniProt Q13421 296-580); assay: SPR (Biacore 8K), MSLN-hFc captured, antibody injected
T5 construct: Captured by an anti-human IgG antibody on the chip; also called human MSLN protein; Acro MSN-H5253
T5 sequence (Q13421 other isoform, or with tags, fused parts or gaps): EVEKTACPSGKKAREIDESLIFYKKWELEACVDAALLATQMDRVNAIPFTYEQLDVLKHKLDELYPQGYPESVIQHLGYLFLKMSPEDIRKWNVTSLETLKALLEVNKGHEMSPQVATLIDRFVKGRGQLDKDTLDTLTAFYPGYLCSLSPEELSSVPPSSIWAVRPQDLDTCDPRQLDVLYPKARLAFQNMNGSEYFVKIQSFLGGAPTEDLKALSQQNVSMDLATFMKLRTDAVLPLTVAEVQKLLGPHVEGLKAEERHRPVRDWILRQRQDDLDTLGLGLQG

Row | OD450 [1] | OD450 [2] | OD450 [3] | OD450 [4] | OD450 [5] | OD450 [6] | OD450 [7] | OD450 [8] | OD450 [9] | OD450 [10] | OD450 [11] | OD450 [12] | OD450 [13] | OD450 [14] | OD450 [15] | OD450 [16] | Binder | other results
1 | 0.05 | 2.62 | 0.05 | 0.16 | 1.54 | 2.35 | 0.08 | 0.06 | 0.05 | 0.07 | 0.41 | 0.08 | 2.13 | 0.06 | 0.05 | 0.05 | S009-F7.11.11 chimeric antibody (antibody, human IgG1, kappa, V domains shown, Human-murine chimeric antibody, human IgG1/kappa constant regions) VH: EVQLQQSGPELVKPGASVKIPCKASGYTITDYNMDWVKQSRGKSLEWIGDVFPYNGDSIYNQKFEGRATLTVDKYSSTAYMELRGLTSEDTAVYFCARRKTGTGYFDVWGTGTTVTVSS VL: QLVLTQSPAIMSASPGEKVTLTCSASSSVSSTYLSWYLQKPGSSPKLWIYSTSNLASGVPARFSGSGSGTSYSLTISSMEAEDAASYFCHQWSSYPYTFGGGTKLEIKR | 
2 | 0.05 | 2.65 | 0.05 | 0.6 | 2.14 | 2.19 | 0.06 | 0.06 | 0.05 | 0.06 | 1.44 | 0.15 | 2.21 | 0.06 | 0.05 | 0.05 | S009-F7.12.13 chimeric antibody (antibody, human IgG1, kappa, V domains shown, Human-murine chimeric antibody, human IgG1/kappa constant regions) VH: EVQLQQSGPELVKPGASVKIPCKASGYTFTDYNMDWVKQSHGKGLEWIGDINPNTDDTIYNQKFNGKATLTVDKSSSTAYMELRSLTSEDTAVYYCSRRLIGTGYFDVWGTGTTVTVSS VL: QIVLTQSPAIMSASPGEKVTLTCSASSSVISTYLCWYRQKPGSSPELWIYSTSNLASGVPARFSGSGSGTSYSLTISSMEAEDAASYFCHQWSNYPYTFGGGTKLGMKR | 
3 | 0.05 | 2.75 | 0.05 | 0.84 | 2.4 | 2.49 | 0.08 | 0.06 | 0.05 | 0.07 | 1.78 | 0.22 | 2.34 | 0.08 | 0.05 | 0.05 | S009-F7.6.17 chimeric antibody (antibody, human IgG1, kappa, V domains shown, Human-murine chimeric antibody, human IgG1/kappa constant regions) VH: QVQLQQSGAELARPGASVKMSCKASGYTFTTYTMHWVKQRPGQGLEWIGYISPTGDFTKYNQKFKDKATLTTDKSSNTAFMQLSSLTSEDSAVYYCARWNGTVWFAYWGQGTLVTVSA VL: DIVMTQSQKFMSTSVGDRVTVTCKASQALGTNVAWYQQKPGQSPKVLIYSASYRYSGVPYRFAGGGSGTDFTLTITNVQSEDLAEYFCQQYNNYPLTFGAGTKLELKR | 
4 | 0.05 | 2.42 | 0.04 | 0.82 | 2.15 | 2.46 | 0.08 | 0.06 | 0.05 | 0.07 | 1.39 | 0.35 | 2.31 | 0.17 | 0.05 | 0.05 | S009-F7.21.16 chimeric antibody (antibody, human IgG1, kappa, V domains shown, Human-murine chimeric antibody, human IgG1/kappa constant regions) VH: QVQLQQPGTELVKPGASVKLSCKASGYTFTTFWMHWVKQRPGQGLEWIGGVNPTNGGTNYNEKFRTKATLTVDKSSTTADMQLSSLTSEDSAVYYCAPHYISSRPGFAYWGQGTLVTVSG VL: DIVMTQSQKFMSTSGGDRVSVTCKASQNVGTNVAWYQQKPGQSPKALIYSASYRYSGVPDRFTGSGSGTDFILTISNVQSEDLAEYFCQQYNSYPLTFGGGTKLEIKR | 
5 | 0.08 | 2.91 | 0.06 | 0.41 | 2.3 | 2.5 | 0.06 | 0.08 | 0.06 | 0.07 | 1.28 | 0.15 | 2.5 | 0.1 | 0.06 | 0.06 | S009-F7.2.3 chimeric antibody (antibody, human IgG1, kappa, V domains shown, Human-murine chimeric antibody, human IgG1/kappa constant regions) VH: ELQLVESGGDLVKPGGSLKLSCAASGFTFSSNGMSWLRQTPDKRLEWVATISSGGRYTYYPDSVKGRFTISRDNAKNTLYLQMSSLKSEDTAMYYCARRGIYDYFDCWGQGTTLTVSS VL: DIQMTQSPASLSISVGETVTITCRASENIHSSLAWYQQKQGKSPQLLVYAATNLADGVPSRFSGSGSGSQYSLKINSLQSEDFGTYYCQHFWGTPWTFGGGTKLDIKR | 

Second part, the binder before the results:

Row | Binder | OD450 [1] | OD450 [2] | OD450 [3] | OD450 [4] | OD450 [5] | OD450 [6] | OD450 [7] | OD450 [8] | OD450 [9] | OD450 [10] | OD450 [11] | OD450 [12] | OD450 [13] | OD450 [14] | OD450 [15] | OD450 [16] | other results
6 | S009-F7.18.10 chimeric antibody (antibody, human IgG1, kappa, V domains shown, Human-murine chimeric antibody, human IgG1/kappa constant regions) VH: QVQLQQSGAELVRPGTSVKVSCKASGYAFTNYLIEWVKQRPGQGLEWIGVINPGSGGTKYNEKFKGKATLTADKSSSTAYMQLSSLTSEDSAVYFCASDYDYDPFAYWGQGTLVTVSA VL: DIVMTQSHKFMSTSVGDRVSITCKASQDVSTAVAWYQRKPGQSPKLLIYWASTRHTGVPDRFTGSGSGTDYTLTISYMQAEDLALYYCQQHYSTPYTFGGGTKLEIKR | 2.45 | 2.4 | 0.38 | 0.97 | 2.33 | 2.29 | 0.07 | 2.45 | 2.05 | 0.08 | 1.91 | 0.31 | 2.28 | 2.77 | 1.17 | 2.46 | 
7 | F3.80.22-H5 (scFv, not shown: small tags and cut ends, also called S009-F3.80.22 humanized antibody VL1a + VH1) scFv: DIVMTQTPLSLPVTPGEPASISCRSSQSLEHNDGNTYLHWFLQKPGQSPQLLIYKVSNRFSGVPDRFSGSGSGTDFTLKISRVEAEDVGVYYCSQSTHVPFTFGQGTKLEIKGGGGSGGGGSGGGGSEVQLVQSGAEVKKPGATVKISCKVSGYTFTDYEIHWVQQAPGKGLEWMGAFDPEIGGSAYNQKFKDRVTITADKSTDTAYMELSSLRSEDTAVYYCTDYYGSSSGYFDVWGQGTTVTVSS |  |  |  |  |  |  |  |  |  |  |  |  |  |  |  |  | Maximum_MFI [17]: 302 MFI; binding result [17]: no binding; EC50 [18]: 5.29 nM; Maximum_MFI [18]: 1370 MFI; Kd [19]: 159 nM; koff [19]: 0.000565 s⁻¹; kon [19]: 3560 M⁻¹ s⁻¹
8 | F3.80.22-H10 (scFv, not shown: small tags and cut ends, also called S009-F3.80.22 humanized antibody VL2 + VH2) scFv: DIVMTQTPLSLPVTPGEPASISCRSSQSLEHNNGNTYLHWFLHKPGQSPQLLIYKVSNRFSGVPDRFSGSGSGTDFTLKISRVEAEDVGVYYCSQSTHVPFTFGQGTKLEIKGGGGSGGGGSGGGGSEVQLVQSGAEVKKPGATVKISCKASGYTFTDYEIHWVQQAPGKGLEWMGAFDPEIGGSAYNQKFKDRVTITADKSTSTAYMELSSLRSEDTAVYYCTDYYGSSSGYFDVWGQGTTVTVSS |  |  |  |  |  |  |  |  |  |  |  |  |  |  |  |  | Maximum_MFI [17]: 381 MFI; binding result [17]: no binding; EC50 [18]: 1.99 nM; Maximum_MFI [18]: 1800 MFI; Kd [19]: 20.9 nM; koff [19]: 0.000177 s⁻¹; kon [19]: 8470 M⁻¹ s⁻¹

Reference: US20250250357A1 (NANJING ZAIMING PHARMACEUTICAL, published 2025)
